For one series, the target named is recombinant human PD-L1 (Homo sapiens, UniProt Q9NZQ7 19-238). Nature of the series: BLI; PD-L1 immobilized on AR probe; BLI: 1x PBS pH 7.4, aptamers 3-12 uM, 300 s association, 600 s dissociation, temperature not stated; EMSA: TBE-PAGE, binding buffer composition not given. The conditions noted are these: protein: commercial; stem-loop.
Series [1] concerns the target PD-L1 on MDA-MB-231-derived exosomes (UniProt Q9NZQ7 19-290). Nature of the series: ellipsometry (DP-SIS); exosomes 1e1-1e8 particles/mL; no detectable signal; BLI: 1x PBS pH 7.4, aptamers 3-12 uM, 300 s association, 600 s dissociation, temperature not stated; EMSA: TBE-PAGE, binding buffer composition not given. The note with it: protein: native; stem-loop. A general note: In EMSA bound probe runs differently from free probe, usually more slowly.

recombinant human PD-L1, sequence (Q9NZQ7 19-238): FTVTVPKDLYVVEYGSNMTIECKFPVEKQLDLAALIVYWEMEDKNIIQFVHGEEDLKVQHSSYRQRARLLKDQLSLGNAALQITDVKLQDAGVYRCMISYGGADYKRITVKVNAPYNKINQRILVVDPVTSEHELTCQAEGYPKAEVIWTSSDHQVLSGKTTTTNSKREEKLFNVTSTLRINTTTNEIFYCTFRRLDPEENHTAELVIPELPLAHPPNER
PD-L1 on MDA-MB-231-derived exosomes, sequence (Q9NZQ7 19-290): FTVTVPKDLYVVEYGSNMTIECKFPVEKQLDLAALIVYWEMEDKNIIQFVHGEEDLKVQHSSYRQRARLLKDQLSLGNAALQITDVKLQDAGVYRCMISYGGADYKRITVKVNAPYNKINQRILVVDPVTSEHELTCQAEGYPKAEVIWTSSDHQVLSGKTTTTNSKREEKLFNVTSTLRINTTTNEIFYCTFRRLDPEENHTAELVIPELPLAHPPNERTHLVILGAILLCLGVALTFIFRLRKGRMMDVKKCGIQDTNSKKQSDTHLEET

GTACCTGCTCTCCGCGCGAAGCACGCCAGGGACT (structured_DNA, 5' amine (NH2)) [Tr-Apt13]: the Kd (in general, the concentration at which binding is half-saturated) with recombinant human PD-L1 is about 991 nM.
With ATAGTCCCTGGCGTGCTTGGTCGGCAGAGCAGGTACGGTGTCA (structured_DNA, 5' amine (NH2)) [Apt45], the Kd with recombinant human PD-L1 is about 186 nM. Besides, in series [1], the binding result is recorded as “no binding”.
For the molecule TGACACCGTACCTGCTCTCCGCGCGAAGCACGCCAGGGACTAT (structured_DNA, 5' amine (NH2)) [Apt13], the Kd with recombinant human PD-L1 is about 714 nM.

The values are drawn from PMC12806343, “Aptamer‐Engineered Ellipsometry for Clinical Detection of BALF‐Derived Exosomes: Multi‐Level Engineering for Prognostic Evaluation of Immunotherapy Responses”.
